Data taken from US9885709B2, “Determination of a midregional proadrenomedullin partial peptide in biological fluids for diagnostic purposes, and immunoassays for carrying out such a determination” (B.R.A.H.M.S. GMBH, priority 2003, dated 2018).
Several values for one entry are separate records, joined by “and”; a condition that tells them apart may be missing. Equal entries are not always repeated.

Assay: Stability investigation of mid-proAM in sepsis sera stored at room temperature
Assay type: in vitro ADME
Description: For examining the question as to whether problems are likely in a measurement of mid-proAM because of insufficient stability of the mid-proAM in a sample or measuring solution, 20 sepsis sera were each measured in a fresh state and after storage for 3 days at room temperature. […] This proven stability of mid-proAM is a major advantage in terms of handling aspects for diagnosis.

In the case of “mid-proAM: peptide which contains the amino acids 45-92 of pre-proAM or consists thereof (SEQ ID NO:3); endogenous analyte, also synthesized as standard (ELRMSSSYPTGLADVKAGPAQTLIRPQDMKGASRSPEDSSPDAARIRV; listed as Homo sapiens)”, the immunoreactivity after storage (20 sepsis sera, storage for 3 days at room temperature) is reported as “virtually unchanged”, the Change (Day 3 value as percent of Day 0 value, individual sepsis serum, 3 days at room temperature) is reported as 92.7% and 95.7% and 109.6% and 102.8% and 96.4% and 99.9% and 106.3% and 102.1% and 95.2% and 110.7% and 80.0% and 105.5% and 102.2% and 103.4% and 89.5% and 94.1% and 98.8% and 98.1% and 97.0% and 95.4% and the “mid-proAM Day = 3” value (individual sepsis serum (one patient), after storage for 3 days at room temperature) is reported as 1.0 nmol/l and 1.2 nmol/l and 2.1 nmol/l (2×) and 2.7 nmol/l (2×) and 3.1 nmol/l and 4.9 nmol/l and 5.9 nmol/l and 3.4 nmol/l and 4.6 nmol/l and 2.4 nmol/l and 1.3 nmol/l and 1.5 nmol/l (2×) and 1.8 nmol/l (2×) and 2.0 nmol/l and 6.1 nmol/l and 3.2 nmol/l. The “mid-proAM Day = 0” value (individual sepsis serum (one patient), measured in a fresh state) was 1.1 nmol/L and 1.3 nmol/L and 1.9 nmol/L and 2.6 nmol/L and 2.8 nmol/L and 3.1 nmol/L and 4.6 nmol/L and 5.8 nmol/L and 3.6 nmol/L and 4.2 nmol/L and 3.0 nmol/L and 1.2 nmol/L and 1.5 nmol/L and 1.7 nmol/L and 2.0 nmol/L and 2.1 nmol/L and 6.2 nmol/L and 3.3 nmol/L and 2.2 nmol/L and 1.6 nmol/L.
